Test results from the domain aggregation screens of Martell et al. (2025).

Assay: soluble fraction after stress (log2 fold change); higher = more stays soluble; pooled small domains, quantitative proteomics
Conditions: stress: 75 degC
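Note: 20 min heating vs room temperature control held 20 min.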

| Sequence | soluble fraction (log2) |
| --- | --- |
| HMEILTRQLTHYLHLLPPAQQEVVRGVYLQDQTLQEIADRVQIPLGTVKSRLRLGLSKLREQIEQEHE | -1.36 |
| HMEIMELPEYVVRSGSGLDAFREKWDLWDQGLMYDLKDKRAVFPIFIDGVMIDAVGRALAGAEPKWLRYTG | -0.176 |
| HMEINEDEIYEKIMIEIEQDNKVKSTWAKALSQSDGNKDKAESLYISMRFEELKYHQSYQKEELNLKDNQQ | 0.0614 |
| HMEIPRYRLIGADGGRMVDLGEGQGAIPPVDVKRGMIDMPGLGKGYYTADGKSAVITNADGSKTRVL | -0.25 |
| HMEIRNLMPILSHFLNENDIKLSRESVNLVLDRASGNRENLNNELKKIHDYSFSNKIIDFETIKKLTNLG | -0.0896 |
| HMEISLAETLRSSLHMILGWYQNTGDKKLLELIRLHLQAYVNTGNSLNPEMEEIRAALETLGEGKEAFRP | -2.35 |
| HMEISNWLEEIGLSRYTETLSEFPLEDLVEFTDDDFKELGVLTPHRKKLLAAIATLNNDASSN | -0.245 |
| HMEISTEVPLRGGTISEEALEALNRLPGVTASNIDGKSISVDVADNAELRVSDINQVLAVHSPDTRV | -0.0403 |
| HMEITRDTVIQWLEAERRSQTWLSKQLGVSVQAVSNWLREKNPQTISASAQITIRALMEEDAAK | -1.11 |
| HMEIVQVIAQNIQDLLDKHKISVSELSGYLGISRQTLTNYLKTTSTIDSVQLVKIADFFNIPAEYLLKDH | -1.5 |
| HMEIVSTEEKIKRAAEQVFLLRGLEGARMQEIADVAGINKAMLHYYFRNKETLFDVILSEKL | -2.11 |
| HMEIYEEDRTKVVNDLMDQILNRQITMDAAATKFINIRNSLGTTITKEDEQNLEMLRGLIFDKT | 0.2 |
| HMEIYIDGNKYVGELRNGKPNGRGTITYTGDGSKYVGEWKNGKRYGRGKMAYTNGTTKEGVWKDDEFLYAT | 0.181 |
| HMEKAKVPSVIGMTEANAKRTIRDAGFKVGRVTRVESEAYDKGKVIEQQYEAGSELEKKKPISIVVSKGKK | -0.108 |
| HMEKALEVKYQKMVELLGDQSTFYVDEVKKIFPEMKKSSLYWNMSKLVEGGYLRRIRNGVYAFNE | -0.401 |
| HMEKEKIKEALIGYFEAEPEEKFTVQELADKLKMNKAGQFNFVVQAVAQLEHDKVITLDDEGNFSLVRHE | 0.176 |
| HMEKERYDTGIGELNRVLGGGLVKGSLILISGDPGIGKSTLLLQTANNISKKYGKVLYVSGEESEEQIKIR | -0.879 |
| HMEKGWYKLGQDSYYVDDDGKIHKGWLELDGKKYYFDQEGKMVTGTVNIDGKDYTFNEKGELYVS | ≥ 1.04 |
| HMEKIELKTVIPENLKKKRLDFALSELFPEHSRSRIQSWIKEGSVMVNSKNYRQRDLVDAGDVVEINTEQK | 0.00949 |
| HMEKIIGQIQINQRGNGYVIVPNVKDDIFVKRENLNSARQGDRVAVQLLSRPNQKPEGLVQEVLERGQ | 0.637 |
| HMEKILSYKALMNDAGKRIDQFLANNEKDISRTRIKSLILEGSLKLDNNIINDPSYKIKENDVFTLFIPEA | -0.482 |
| HMEKIRIQKYLSERGVMSRRAADSALAEGRIAVNGVTARPGDKIDPSSDTLTIDGRIVTTGTAP | -0.0992 |
| HMEKKEWVIYITGAVKKPGVYRIPEGARVYQALEAAGGFTPEADRDAVNLAAMLQDGAHIKFPAVGEEV | -0.148 |
| HMEKLNYSISNEEQGQRIDKYLSLMIEGKSRSFIQGLIDDKKVMANGKVIKSNYKLKNNDEITVEMPDPI | -0.0366 |
| HMEKNILPDTSPEKQYEFATSFLKVGDYSTAERAFREFVINNSEHKLAGNAQYWYAETFRIRQ | 0.261 |
| HMEKSQIHLIHTRYVNPEQLVPILSMVIPAENIYVKSDSNLIIINGSSEMLREVESIVSKLDVPS | -0.255 |

| Sequence | soluble fraction (log2) |
| --- | --- |
| HMEKSSALRAKEAFMALYHDGKFKPGTKIPSESNMAELLGVSRETWRKALALLRGDGVLYSKHGSGTYLLE | 0.254 |
| HMEKTKLPNLVDFTYRQAEALLQTHGLKVGKVERVPDVGQTVIKAKYKGKVISWGTELNKGEKIDLVIGKG | -0.542 |
| HMELADLPSAQIREILAYVYRAPLEKRRDPSIHWLLIAAHKLTLPLLDRLDPADARALGERYGADYP | -0.00148 |
| HMELARLRPELDGNDIMRILGVPPGPVVGRAYTYLLELRINQGELGRERVTQLLLDWAAAEGISA | -2.76 |
| HMELDMTFGEKIQKLRKESGLSQEELSYQLGVSRQAISKWERDSGYPETEKIVRMSKIFDVTLDYLLNE | -0.582 |
| HMELEDTYTKNLDASLARLDEYQASKGLTDEQVDEVINSLIADAENIIMGVFTPELIDSKLKAMNYDQDV | 0.119 |
| HMELEFLTEKQKEALILAVNRGYYDVDSEVTLKRLADELGIARSTYGEHLKRAESEALKMVVSDLLRD | -0.556 |
| HMELEIPGELIEAVRRLRDERQRMRLAGELAARQIQMHPERYTEASIDPVQTWDELRARILALA | -0.485 |
| HMELLSGTVEKVLTSGVLVKLPGGAIGFIPNSEMGTPRGTNHGKMFPAGTPLQVMVVEVNQDRGRITLSR | -1.69 |
| HMELLTNPLTGREVEVLTLMALGQTNHEIARQLYLATGTVKAHTSSIYRKLDVANRTEAVARARQLGIL | -2.32 |
| HMELLTYREMDVLNLLDQRLTNKEIAHALGISTETVRQHTVNLFRKLNVDNRRQAIVVARSLGYIGTPT | -2.97 |
| HMELNESVLKALYEKFREMSGSKGFITEDEVIIQLEKENPDITPDQQAEIFKYLYDTPLQIY | -0.268 |
| HMELNFEGFYRFVRDELNVDLNAYKEKQLKRRIATVMKSSGALTLEDYSRLIANDEVIRNKFLDYITI | -3.37 |
| HMELPMGTQLPPERELAQQMQVSRAVVNGGLAELAQQGFLEVRPRQGTFVADYRRKGNLSTLIAIMEY | 0.257 |
| HMELPPLQPGQPIDGRVEQQIRAGYYVVSVRGRGYEFQLPESARPGDLLRMVYLNDHPRLTFALLRIDNAN | -1.5 |
| HMELPVAVPHTELSPEALRGVVESFVLREGTDYGERDVPFEAKVAQVIRQLERGEARIMFDPVTQSVQIVT | 0.162 |
| HMELRSPMPGLIIEIPVSKGDIIKKDQSLIILEAMKMENVLTSPINGKIADIKVNVQDTVEKNNLLITFEN | -0.0769 |
| HMELSESLENYLVVIYEAHLRNEIARIKDMTASLSVKHTSAIDAIKKLEDLGIVNYEKRGFVKLTQSGIEK | 0.00204 |
| HMELSPAELGERLKVARETANVTQDAGAKAAGIARTTLVAIEKGQRSARIDELQTLSRRYGVSVNSLLRR | -0.154 |
| HMELSSRQAMIVDIVRKYEPITSEQIADKLNLTRSALRPDLAVLTMIGILEARPRVGYFFTGK | -1.91 |
| HMELSTQERIQILLEILNQREIISFSQTLRKKEGKKGVVVTFLASLELAKDGYVTLVQNKSDQIYLRSN | -0.803 |
| HMELTDSLTENAKKLYSVLTTEPRHIDDLSEEAKLSSADTLAALTELELYSLVALSEGKHYYK | -0.349 |
| HMELTKAELEVMQILWKLKKAFVGDILDRMVEPKPAYNTVSTVVRLLEKKGVVGHESFGKSHRYYPL | -3.66 |
| HMELTVPDFTNMSLEDAINLAEKRDVRLEVTDSVFVKRLGRGFIYSQNPVAGSKVKKGRRILITINAIN | -3.63 |
| HMEMDPKELGRQVLAKRKEKGWSQEQLGKMAEISRNYVSQIERGEADSISIKIINRLAIALGVSPSDLGE | -0.292 |
| HMEMKHKNSQIFQAIKLKHMGFTPTQISEELRVSRTTINHWLTKAQLKDVKWEDIRENSADELVKLLFG | -1.33 |

| Sequence | soluble fraction (log2) |
| --- | --- |
| HMEMNPLDIQNKAAELAQQWLQLPVGERQKQMAAVRTSNPNLHAMAKQKMEEMRSQAESQGRQSLSQP | 0.324 |
| HMEMTDKEEELMRIFWNHGPMFVREIVELYPEPRPHFNTLSTFVRNLEQKGFVSHEAVGGSFRYYAV | -1.45 |
| HMEMTEDEITKQFDAMEREAKKEIDTGADKRAFMYGVSRTAAGMAGKNPKYARFITDKAKEVIENIAKYK | 0.298 |
| HMENAEALLKKLSGVLSDYEYKMLMLYADGKTPRRIAQETGQSAKSVSNALFRARTKLKELYEDQ | -0.66 |
| HMENEIVMPVQINGKKRGDLTIARDADQASIQKAVLELDFVKAALNGGSPKKVIVVPQRIVNVV | 0.338 |
| HMENFKVFMKAVQEVSPVPVRFDEISSGAKGYYSNTEKEIVIQNGMSESQTMKTGIHEVTHAMLHDRDF | 0.234 |
| HMENFYGYEIINPEAKKFFITMGVNRYALEQWIKNKSEYGLIIVKSLYPFDPRLKLFLEKNRERIQNLIF | -0.526 |
| HMENKLIELTLSLDKSERLDKILTQELSHTRSVIQQWLKSGFVSVNGEIVKANYKAKDGDHVTIQIE | -0.594 |
| HMENKTGEVTVREDSALTLRQGPGTNYEKVGQAYRGDRVDVLEEQNGWYKVKTYDGKEAWASSSYISIV | 0.861 |
| HMENMETSDIVARYSNMPGGIIEAFHEIVDRHGFLSQEAIIEAARGFGISVAEAYGVATFYSMFS | -0.342 |
| HMENMRLILASNLRRIREERRLSLNKVSELTGVSKSMLGQIERGESNPTLQTVWKIANGLRVSLTDLTEVP | -2.66 |
| HMENRILLSEDSLKHLAQDIPIDIIEKLSVLKDQIYHRYDDFNSIVQGLLGGENYLKYKDNILSFVEQ | 0.424 |
| HMENSMDTDWDVSGVDPSQYRLLFSTLGAIAGVKDVGLNPDGLKIIHTPEALPAIKQAFDANNLKLKMRTN | -0.0945 |
| HMENSPLTHREAEVMRLMSEGKSNRAISEHLVISEKTVKNHVSSILQKMSVDDRTQAVLQAIKNGWVD | 0.281 |
| HMENTGFKDKKGNYIFDGDIVKDILGNIMKVEFKHFKWQLIPLNKTAFNMPMVDWLDLETETLNAEIIGN | -2.07 |
| HMENTIESLLKAKGFNDIIVTVSDKQVDVVVSDKEIADNKRAQIEDVIKRKTGLEASAITITPA | 0.127 |
| HMENVLFVNVLSMTVRELAEMMKIPVNKIIQDSFSKGIMMNPNQRLEYDNFAELAKKYGITVKI | -1.24 |
| HMENVMLRNFAIQATEAGVIKLLEDQRTFVWGSNNKKFMTVPFDEHPYSAMAAFFKTDEGLEIYKSIEKKF | -1.97 |
| HMENYQIETFVKFIEESTGEDGVAFEDLFQNFTSRPAVITMFLALLEALRRNSIRIFQKEEFSQILIYPK | -0.0302 |
| HMENYTYKYATSANVNIREEPNTDSTILGKTLLNTEFQVVEDVDGWSKITTEAGYAYIKSEYLSDTE | 0.502 |
| HMEPDEQAVKALIAEIDKLSKEKLTLKHEKKLKELREIYDDFTEEEKKLVTNYDILVKMEKRMEVLKKQEG | 0.127 |
| HMEPDEYTVRQAFMKFDVGGEGRVPRDKLKALLETLGLELSAQQVRESEEQLDPEGTGFTSYGDFLMWWN | -0.793 |
| HMEPEVSNTYEKVLGMHHFSSTRSHQLHDLVRQANALELSLGEIESIAQSAKDGAQVISDIKHWMEPNRQ | 0.381 |
| HMEPEWVINTDGSNLNEILAIDEVDSRKTFSNDLQEVYRTFGIEAARQILVQEIDAVIESSGA | 0.082 |
